According to patent publication US11110182B2, “Multifunctional RNA nanoparticles and methods for treating cancer and therapeutic resistant cancer” (University of Cincinnati, priority 2016, dated 2021):

How the values were obtained:
[1] = test system: BT474 orthotopic xenograft tumors; test: Anti-tumor therapy in BT474 orthotopic xenograft breast tumor mouse model; assay type: in vivo, athymic nude mice; details: for tumor lung metastasis: H&E staining of whole lung
Protocol: FIG. 5A) BT474 orthotopic xenograft mouse models were treated with control pRNA-HER2apt-siScram or pRNA-HER2apt-siMED1 (4 mg/Kg) once a week, in combination with vehicle or tamoxifen (TAM, 0.5 mg/mice/day) 5 days per week. Tumor sizes were measured every three days. FIG. 5B) After three weeks, mice were i.p. injected with D-luciferin, and representative in vivo images of BT474 tumors were recorded using IVIS Lumina imaging system. FIG. 5C) Average weight of the tumors excised at the end of the treatment, and FIG. 5D) the representative photos of tumors. FIG. 5E and FIG. 5F) MED1 expression in the BT474 tumors was examined using IHC staining and FIG. 5G) immunoblotting. FIG. 5H) The expression of Ki-67 in tumor tissues was analyzed using IHC staining, and FIG. 5I) the percentage of Ki-67 positive cells was counted. Scale bar: 100 μm.
FIG. 6A) Whole lung tissues were fixed, embedded, and sectioned for H&E staining, and FIG. 6B) metastasis foci in the whole lung tissues were then counted. Arrow indicates the metastasis foci. Scale bar: 100 μm. FIG. 6C) After digesting tumor tissues with trypsin and 0.1% collagenase, tumor cells were stained for CD44 and CD24, and FIG. 6D) analyzed for CD44^+CD24^−/low stem cell population using flow cytometry. FIG. 6E) Total RNA in the tumor tissues was extracted using TRIZOL reagent, and the expression of TFF-1, FIG. 6F) c-Myc, FIG. 6G) cyclin D1, and FIG. 6H) MMP-9 were determined by real-time PCR.
Migration and metastasis assay. The 8-μm-pore-size polycarbonate membrane, which separates the two chambers of a 6.5-mm Transwell (Costar), was coated with or without 1:8 DMEM-diluted Matrigel (Corning). Transwell assay was performed as previously described.^57 Briefly, BT474 cells were treated with pRNAs alone or together with 4-hydroxy-tamoxifen (4-OHT) for 48 h and starved with serum-free DMEM containing 0.2% BSA overnight. On the next day, cells were collected and 2×10^5 cells were seeded to the upper chamber of Transwell. The lower chamber was filled with 600 μL DMEM medium containing 10% FBS. After incubation at 37° C. for 24 h, cells on the membranes were fixed and stained with 0.1% crystal violet in 20% ethanol solution. Cells at top side of membranes were removed completely, and cells at the bottom side were examined with an Olympus SZX12 microscope and counted. • Mammosphere culture and breast cancer stem cell analyses. BT474 cells were treated with pRNAs for 48 h. Then, cells were suspended in DMEM/F12 medium supplemented with 1×B27 (Thermo Fisher), 20 ng/mL bFGF and 20 ng/mL EGF (R&D), and added into 24-well ultralow attachment plates. After treatment with or without 1 μM 4-OHT for 7 days, mammosphere formation was recorded using an Axiovert S100 TV inverted microscope (Zeiss). Xenograft tumor tissues were cut into small pieces and digested with trypsin and collagenase at 37° C. for 1 h, and tumor cells were collected and rinsed with pre-cold PBS. All cells were stained with FITC-conjugated anti-CD44 antibody and PE-conjugated anti-CD24 antibody (BD Pharmingen) in the dark on ice for 30 min. After resuspension with 0.5 mL PBS buffer, CD44^+/CD24^−/low cell population was analyzed by flow cytometry. • Orthotopic xenograft breast tumor mouse model, in vivo imaging and anti-tumor therapy. Six-week-old female athymic nude mice were purchased from Charles River Laboratories, and all animal procedures were performed under IACUC-approved protocols at the University of Cincinnati. Athymic nude mice were orthotopically injected with 1×10^7 BT474-luc cells mixed with matrigel into the fat pads of the forth pair of mammary glands. When the tumor sizes reached 100-150 mm^3, the mice were randomly divided into four groups (4/group) and intravenously (i.v.) injected with pRNAs (4 mg/Kg) once a week for three weeks. For tamoxifen treatments, 0.5 mg tamoxifen (Sigma) dissolved in sesame oil was intraperitoneally (i.p.) injected into mice 5 days a week for three weeks. […]

MCF-7/HER2 cells = test: MTT assay, MCF-7/HER2 cells; assay type: cell-based, human; details: MCF-7/HER2, 10 μg/mL pRNA and 1 μM tamoxifen, 48 h
Protocol: FIGS. 10A-10D. Evidence that pRNA-HER2apt-siMED1 nanoparticles silenced MED1 expression and sensitized two other HER2+ breast cancer cells to tamoxifen treatment. FIG. 10A) Two HER2-overexpressing breast cancer cell lines MCF7/TAM and FIG. 10B) MCF7/HER2, were treated with 10 μg/mL pRNA-HER2apt-siMED1 nanoparticles or scramble control for 48 h, and then MED1 protein level was determined using western blots. FIG. 10C) MCF7/TAM and FIG. 10D) MCF7/HER2 cells were treated with 10 μg/mL pRNA nanoparticles and/or 1 μM tamoxifen (TAM) as indicated for 48 h, and then cell growth was determined using an MTT assay.
Since MED1 has recently been reported to play key roles in tamoxifen resistance of human breast cancer, the combinational effects of pRNA-HER2apt-siMED1 nanoparticles with tamoxifen on the growth and metastatic potential of BT474 cells was examined. […] The combinational effect of pRNA-HER2apt-siMED1 nanoparticles with tamoxifen treatment on two other HER2-overexpressing breast cancer cells MCF-7/HER2 and MCF-7/TAM were also confirmed (FIGS. 10C-D).

B1: pRNA-HER2apt-siMED1: 3-WJ pRNA nanoparticle bearing a HER2-targeting RNA aptamer and two different MED1 siRNAs; strands p1 SEQ ID NO: 3, p2 SEQ ID NO: 4 (nucleic acid)
chain 1: GGACAGUGAAAGUGAGUCAAAGGAUCAAUCAUGGCCAAAGAUGUUACUUUGAGAGCCUU
chain 2: GGCUCUCAAAGUAACAUCUAAGGCCAUGUGUAUGUGGGGGGAGGACGAUGCGGUCUGCUGUGCUUGAUAUGCCCCAGACGACUCGCCCCCCACAUACUUUGUUGAUCCAAUGACUCACUUUCACUGUCCUU
modifications: 2'-F modification; third strand may lack entry; pRNA-HER2apt-siMED1, p1; pRNA-HER2apt-siMED1, p2
Ki-67 expression in tumor sections ([1]; IHC staining): dramatic reduction
expression of MED1 in tumors ([1]; IHC staining and western blot of BT474 tumors): significantly depleted
CD44^+CD24^−/low cancer stem cells in breast tumors ([1]; combined with tamoxifen, flow cytometry): almost complete depletion
tumor lung metastasis ([1]; in combination with tamoxifen): totally eradicated
tumor growth ([1]; pRNA 4 mg/Kg i.v. once a week in combination with tamoxifen 0.5 mg i.p. 5 days a week, three weeks): almost completely suppressed tumor growth
tumor burden ([1]; pRNA alone, 4 mg/Kg i.v. once a week, three weeks): reduced tumor burden
CD44^+CD24^−/low cancer stem cells in the breast tumors ([1]; pRNA alone, flow cytometry): significantly reduced
tumor lung metastasis ([1]; single agent): totally eradicated
tumor growth ([1]; single agent, pRNA 4 mg/Kg i.v. once a week or tamoxifen 0.5 mg i.p. 5 days a week, three weeks): significantly inhibited tumor growth
combinational effect with tamoxifen on cell growth (MCF-7/HER2 cells): confirmed
